According to PMC3365938:

Target: TolAIII, C-terminal domain of E. coli TolA (residues 302-421) with N-terminal His6 tag (E. coli) (UniProt P19934)
Test: SPR

Chain of UniProt P19934 (P19934 302-421): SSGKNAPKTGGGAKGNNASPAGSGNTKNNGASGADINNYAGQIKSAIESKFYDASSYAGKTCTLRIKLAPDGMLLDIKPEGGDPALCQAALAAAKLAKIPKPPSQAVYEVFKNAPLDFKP

Substance: TA53-107, residues 53-107 of the translocation domain of colicin A (from UniProt P04480 53-107) (domain or fragment)
- Kd: 1340 nM
